Test results reported in PMC6384913.

System: MBP-(ZF)x6 (designed chimera), Q01844-5+P47974+O95218+O95218+P52756+P47974
Assay: BLI
Settings: ITC: 50 mM Tris pH 7.5, 150 mM NaCl, 1 mM DTT, 0.1 mM ZnCl2, 25 °C, BLI: 50 mM Tris pH 7.5, 150 mM NaCl, 0.1% BSA, 0.02% Tween, 30 °C

MBP-(ZF)x6 (designed chimera), Q01844-5+P47974+O95218+O95218+P52756+P47974, sequence (P52756 whole entry, looked up, change not shown, chain 1 of 4): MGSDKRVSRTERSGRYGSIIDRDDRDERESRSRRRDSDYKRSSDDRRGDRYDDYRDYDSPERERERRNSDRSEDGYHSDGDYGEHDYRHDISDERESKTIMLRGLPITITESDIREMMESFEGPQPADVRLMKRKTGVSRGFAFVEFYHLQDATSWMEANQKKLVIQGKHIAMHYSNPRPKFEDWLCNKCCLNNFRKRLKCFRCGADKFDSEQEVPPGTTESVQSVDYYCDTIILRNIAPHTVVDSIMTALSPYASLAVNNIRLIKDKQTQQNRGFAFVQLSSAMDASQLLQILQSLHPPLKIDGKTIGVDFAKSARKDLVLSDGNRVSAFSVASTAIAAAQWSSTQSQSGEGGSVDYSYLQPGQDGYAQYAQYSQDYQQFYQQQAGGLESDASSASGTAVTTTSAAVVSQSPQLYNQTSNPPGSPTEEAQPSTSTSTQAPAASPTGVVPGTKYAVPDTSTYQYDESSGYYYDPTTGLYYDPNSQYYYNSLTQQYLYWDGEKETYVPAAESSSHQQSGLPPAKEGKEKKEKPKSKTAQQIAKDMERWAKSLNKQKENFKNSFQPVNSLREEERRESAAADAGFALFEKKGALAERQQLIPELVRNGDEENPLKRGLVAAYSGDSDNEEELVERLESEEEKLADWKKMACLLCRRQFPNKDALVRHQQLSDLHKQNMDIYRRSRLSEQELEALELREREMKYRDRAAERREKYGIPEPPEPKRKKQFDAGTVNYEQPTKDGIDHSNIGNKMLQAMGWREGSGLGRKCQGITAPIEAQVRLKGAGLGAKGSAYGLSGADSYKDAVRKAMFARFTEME
MBP-(ZF)x6 (designed chimera), Q01844-5+P47974+O95218+O95218+P52756+P47974, sequence (P47974 whole entry, looked up, change not shown, chain 2 of 4): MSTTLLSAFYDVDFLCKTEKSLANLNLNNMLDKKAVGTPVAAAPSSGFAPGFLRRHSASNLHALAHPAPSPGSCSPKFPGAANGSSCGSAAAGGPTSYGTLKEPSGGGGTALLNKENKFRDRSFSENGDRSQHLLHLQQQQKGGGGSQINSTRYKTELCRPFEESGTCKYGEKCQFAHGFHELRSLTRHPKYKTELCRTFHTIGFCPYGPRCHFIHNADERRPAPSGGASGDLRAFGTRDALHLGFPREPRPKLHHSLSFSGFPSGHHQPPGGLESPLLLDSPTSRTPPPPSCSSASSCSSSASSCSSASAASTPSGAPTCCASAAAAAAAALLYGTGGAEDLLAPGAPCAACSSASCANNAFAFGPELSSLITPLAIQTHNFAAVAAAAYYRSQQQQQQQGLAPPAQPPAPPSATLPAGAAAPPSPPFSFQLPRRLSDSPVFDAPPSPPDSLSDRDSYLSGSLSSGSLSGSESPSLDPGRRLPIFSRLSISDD
MBP-(ZF)x6 (designed chimera), Q01844-5+P47974+O95218+O95218+P52756+P47974, sequence (O95218 whole entry, looked up, change not shown, chain 3 of 4): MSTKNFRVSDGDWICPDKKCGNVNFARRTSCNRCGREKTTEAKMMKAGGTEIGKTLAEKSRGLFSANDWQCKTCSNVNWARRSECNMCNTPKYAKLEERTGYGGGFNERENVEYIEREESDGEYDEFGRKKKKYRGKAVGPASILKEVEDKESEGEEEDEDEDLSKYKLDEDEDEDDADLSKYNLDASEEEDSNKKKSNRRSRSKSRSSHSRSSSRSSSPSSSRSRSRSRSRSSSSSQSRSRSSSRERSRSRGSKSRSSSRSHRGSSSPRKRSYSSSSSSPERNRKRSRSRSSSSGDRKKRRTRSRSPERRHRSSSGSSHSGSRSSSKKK
MBP-(ZF)x6 (designed chimera), Q01844-5+P47974+O95218+O95218+P52756+P47974, sequence (Q01844 whole entry, looked up, change not shown, chain 4 of 4): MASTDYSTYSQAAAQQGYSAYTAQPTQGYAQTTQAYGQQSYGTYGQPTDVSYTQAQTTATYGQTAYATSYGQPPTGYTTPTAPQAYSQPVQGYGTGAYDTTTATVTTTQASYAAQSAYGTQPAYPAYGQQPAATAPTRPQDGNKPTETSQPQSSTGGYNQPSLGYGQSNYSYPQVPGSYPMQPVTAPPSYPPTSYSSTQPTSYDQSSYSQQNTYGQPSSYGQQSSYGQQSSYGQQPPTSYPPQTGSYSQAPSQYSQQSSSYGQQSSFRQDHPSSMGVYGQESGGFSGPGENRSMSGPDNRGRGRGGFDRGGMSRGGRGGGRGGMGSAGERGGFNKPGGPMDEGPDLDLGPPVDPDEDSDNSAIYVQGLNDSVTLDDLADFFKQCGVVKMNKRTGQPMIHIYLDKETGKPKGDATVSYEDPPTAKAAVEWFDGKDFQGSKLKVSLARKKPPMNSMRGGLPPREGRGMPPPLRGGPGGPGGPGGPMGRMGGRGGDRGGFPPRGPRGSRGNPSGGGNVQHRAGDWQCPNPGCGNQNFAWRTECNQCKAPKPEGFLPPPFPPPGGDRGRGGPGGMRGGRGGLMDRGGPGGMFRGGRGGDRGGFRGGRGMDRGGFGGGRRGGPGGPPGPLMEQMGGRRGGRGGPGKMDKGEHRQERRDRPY

Row | Sequence | Kd [nM]
1 | AAAGGUUAUUGGUGCCGGGUAUUAAA [(ZF)x6 target] | 24
2 | AAAUAUUGGUGGGUAUUGCCGGUAAA [PT (permuted target)] | 223
